In patent publication US20160348113, “RNA APTAMERS AGAINST BAFF-R AS CELL-TYPE SPECIFIC DELIVERY AGENTS AND METHODS FOR THEIR USE” (CITY OF HOPE, published 2016):

Experiments:
[1] = target: T1, BAFF-R (B-cell activating factor receptor, TNFRSF13C) (Homo sapiens, UniProt Q96RJ3 Q96RJ3:1-76); assay: EMSA; 8U linker; conditions: tags: ProSpect (Israel), human recombinant; label: 32P
T1 sequence: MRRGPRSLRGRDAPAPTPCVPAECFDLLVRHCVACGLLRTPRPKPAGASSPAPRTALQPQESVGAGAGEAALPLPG
Protocol: (§1) The binding activities of the RNA pools were further confirmed by gel shift assays. Briefly, the BAFF-R protein was serially diluted to the desired concentrations (0˜2560 nM). A constant amount of P³² end-labeled RNA (2 nM) was used. The binding reaction was performed as described above. After incubation, 25 μL of binding reaction was loaded into a 5% non-denaturing polyacrylamide gel. Following electrophoresis the gel was exposed to a Phosphor image screen and the radioactivity was quantified using a Typhoon scanner. The dissociation constants were calculated using non-linear curve regression with a Graph Pad Prism. […] The dissociation constants (Kd) for selected aptamers (R-1, R-2 and R-14) with the target protein were calculated from a native gel mobility shift assay (FIG. 16A).
(§2) The binding affinities of the chimeras for BAFF-R protein were assessed by gel shift assay (FIG. 40C and FIG. 49A). […] To determine whether the bound chimera is internalized by BAFF-R expressing cells, real-time Z-axis confocal microscopy was performed (FIG. 41A-C and FIG. 49B). The Cy3-labeled chimeras were successfully internalized into BAFF-R expressing cells (Jeko-1 and Z138) after 5 h post treatment.

[2] = target: T1, BAFF-R (B-cell activating factor …); assay: EMSA; high-salt binding buffer; about; conditions: tags: ProSpect (Israel), human recombinant; label: 5'-32P or Cy3
Protocol: (§3) Filter binding assays were used to detect the binding affinity of the individual aptamers. The RNA pool was treated with Calf Intestinal Phoshatase (CIP) to remove the initiating 5′-triphosphate and labeled with γ-³²P-ATP by T4 polynucleotide kinase and the end-labeled RNA pool (10 nM) was incubated with BAFF-R protein (100 nM) and a 10-fold molar excess of nonspecific competitor tRNA (100 nM) in the high-salt RNA binding buffer for 30 min. A 50 μL of binding reaction was separated by a pre-wet nitrocellulose filter. After the filter was washed with 2 mL binding buffer, the radioactivity retained on the filter was counted by a multi-purpose scintillation counter (Beckman Coulter).
as §1, with “After incubation, 25 μL of binding reaction was loaded into a 5% non-denaturing polyacrylamide gel.” left out

[3] = target: T1, BAFF-R (B-cell activating factor …); assay: EMSA; about; UU linker; conditions: tags: ProSpect (Israel), human recombinant; label: 32P
Protocol: as §1
(§4) Binding affinities were also assessed by flow cytometry (FIG. 28). […] To determine if the bound chimeras were internalized in the BAFF-R expressing cells, out Z-axis confocal microscopy was performed with Jeko-1 cells and CEM control cells incubated with Cy3-labeled transcripts as described above. […] To visualize the nucleus, the cells were stained with the nuclear dye Hoechst 33342 after incubation with Cy3-RNA.

[4] = target: T1, BAFF-R (B-cell activating factor …); assay: EMSA; about; R-22 used as low-affinity negative control; conditions: tags: ProSpect (Israel), human recombinant; label: 32P
Protocol: as §1, §4

[5] = target: T1, BAFF-R (B-cell activating factor …); assay: EMSA; high-salt binding buffer (10 mM HEPES pH 7.4, 150 mM NaCl, 1 mM CaCl2, 1 mM MgCl2, tRNA); about; conditions: tags: ProSpect (Israel), human recombinant; label: 5'-32P or Cy3
Protocol: as §3
as §1, with “After incubation, 25 μL of binding reaction was loaded into a 5% non-denaturing polyacrylamide gel.” left out

[6] = target: T1, BAFF-R (B-cell activating factor …); assay: EMSA; parental R-1 in STAT3 chimera comparison; conditions: tags: ProSpect (Israel), human recombinant; label: 5'-32P or Cy3
Protocol: as §1, §2

B1: R-1-STAT3 27-mer OVH chimera (mixed)
RNA 1: GGGAGGACGAUGCGGGAGGCUCAACAAUGAUAGAGCCCGCAAUGUUGAUAGUUGUGCCCAGUCUGCAGACGACUCGCCCGAUUUUUUUUGAGAACGGAAGCUGCAGAAAGAUACGA
RNA 2: GUAUCUUUCUGCAGCUUCCGUUCUC
modifications: 2'-F pyrimidines in transcribed aptamer strand
B1 showed a Kd [1] of 35 nM.

B2: R-14 aptamer (ssRNA)
RNA: GGGAGGACGAUGCGGAUAACUAUUGUGCUAGAGGGCUUAUUUAUGUGAGCCGGUUGAUAGUUGCGCAGACGACUCGCCCGA
modifications: 2'-F pyrimidines (2'-F-C, 2'-F-U)
With B2 the Kd [2] was 96 nM.

B3: R-14 D-1 chimera (mixed)
RNA 1: GGGAGGACGAUGCGGAUAACUAUUGUGCUAGAGGGCUUAUUUAUGUGAGCCGGUUGAUAGUUGCGCAGACGACUCGCCCGAUUCCACAGAUGUGAAGUUCAUUUCCAA
RNA 2: UUGGAAAUGAACUUCACAUCUGUGGCA
modifications: 2'-F pyrimidines in transcribed aptamer-sense strand
For B3, the Kd [3] was 80 nM.

B4: R-1-STAT3 27-mer SWAP chimera (mixed)
RNA 1: GGGAGGACGAUGCGGGAGGCUCAACAAUGAUAGAGCCCGCAAUGUUGAUAGUUGUGCCCAGUCUGCAGACGACUCGCCCGAUUUUUUUUUCAGUCGUAUCUUUCUGCAGCUUCCGU
RNA 2: GGAAGCUGCAGAAAGAUACGACUGA
modifications: 2'-F pyrimidines in transcribed aptamer strand
Work on B4 yielded a Kd [1] of 56 nM.

B5: R-22 D-1 chimera (mixed)
RNA 1: GGAGGACGAUGCGGAUCCUCCGAAGGUCGCGCCAACGUCACACAUUAAGCUUUUGUUCGUCUGCAGACGACUCGCCCGAUUCCACAGAUGUGAAGUUCAUUUCCAA
RNA 2: UUGGAAAUGAACUUCACAUCUGUGGCA
modifications: 2'-F pyrimidines in transcribed aptamer-sense strand
Work on B5 yielded a Kd [4] of 191 nM.

B6: R-1 D-1-Mutated chimera (mixed)
RNA 1: GGGAGGACGAUGCGGGAGGCUCAACAAUGAUAGAGCCCGCAAUGUUGAUAGUUGUGCCCAGUCUGCAGACGACUCGCCCGAUUCUCCAGAUUCCAAGCACAUUGUGAA
RNA 2: UUCACAAUGUGCUUGGAAUCUGGAGCA
modifications: 2'-F pyrimidines in transcribed aptamer-sense strand
B6 gave a Kd [3] of 51 nM.

B7: R-1 D-1 chimera (CCND1 siRNA design 1) (mixed)
RNA 1: GGGAGGACGAUGCGGGAGGCUCAACAAUGAUAGAGCCCGCAAUGUUGAUAGUUGUGCCCAGUCUGCAGACGACUCGCCCGAUUCCACAGAUGUGAAGUUCAUUUCCAA
RNA 2: UUGGAAAUGAACUUCACAUCUGUGGCA
modifications: 2'-F pyrimidines in transcribed aptamer-sense strand
B7 was tested, and the Kd [3] was 66 nM.

B8: R-14 D-2 chimera (mixed)
RNA 1: GGGAGGACGAUGCGGAUAACUAUUGUGCUAGAGGGCUUAUUUAUGUGAGCCGGUUGAUAGUUGCGCAGACGACUCGCCCGAUUUGUGCCACAGAUGUGAAGUUCAUUUCC
RNA 2: AAAUGAACUUCACAUCUGUGGCACA
modifications: 2'-F pyrimidines in transcribed aptamer-sense strand
For B8, the Kd [3] was 73 nM.

B9: R-1 D-2 chimera (CCND1 siRNA design 2) (mixed)
RNA 1: GGGAGGACGAUGCGGGAGGCUCAACAAUGAUAGAGCCCGCAAUGUUGAUAGUUGUGCCCAGUCUGCAGACGACUCGCCCGAUUUGUGCCACAGAUGUGAAGUUCAUUUCC
RNA 2: AAAUGAACUUCACAUCUGUGGCACA
modifications: 2'-F pyrimidines in transcribed aptamer-sense strand
B9 was tested, and the Kd [3] was 126 nM.

B10: R-1 aptamer (ssRNA)
RNA: GGGAGGACGAUGCGGGAGGCUCAACAAUGAUAGAGCCCGCAAUGUUGAUAGUUGUGCCCAGUCUGCAGACGACUCGCCCGA
modifications: 2'-F pyrimidines (2'-F-C, 2'-F-U)
In the case of B10, the Kd [5] is reported as 47 nM and the Kd [6] is reported as 54 nM.
